Legend:
HLA-B*58:01 [1] = assay: IEDB peptide-MHC binding, purified MHC/competitive/radioactivity; filed as Kd, often an IC50 or EC50 that approximates it; ≥ and ≤ were set here for values at or beyond the usual limits of such assays
HLA-B*57:01 [2] = assay: as above
HLA-A*30:01 = assay: as above; conditions: source organism: Dengue virus 4 Philippines/H241/1956
HLA-B*54:01 = assay: as above
HLA-B*35:01 = assay: as above
HLA-B*53:01 = assay: as above
HLA-B*07:02 [3] = assay: as above
HLA-B*51:01 [4] = assay: as above
HLA-A*11:01 [5] = assay: as above; conditions: source organism: Vaccinia virus WR
HLA-A*31:01 [6] = assay: as above; conditions: source organism: Vaccinia virus WR
HLA-A*02:03 [7] = assay: as above; conditions: source organism: Vaccinia virus WR
HLA-A*02:06 = assay: as above; conditions: source organism: Vaccinia virus WR
HLA-A*68:02 = assay: as above; conditions: source organism: Vaccinia virus WR
HLA-A*02:02 = assay: as above; conditions: source organism: Vaccinia virus WR
HLA-A*03:01 [8] = assay: as above; conditions: source organism: Vaccinia virus WR
HLA-A*33:01 = assay: as above; conditions: source organism: Vaccinia virus WR
HLA-A*68:01 = assay: as above; conditions: source organism: Vaccinia virus WR
HLA-A*02:01 [9] = assay: as above; conditions: source organism: Vaccinia virus WR
HLA-B*15:17 = assay: IEDB peptide-MHC binding, purified MHC/competitive/fluorescence; filed as Kd, often an IC50 or EC50 that approximates it; ≥ and ≤ were set here for values at or beyond the usual limits of such assays; conditions: source organism: Zaire ebolavirus
HLA-B*27:03 = assay: as above; conditions: source organism: Zaire ebolavirus
HLA-A*69:01 = assay: as above; conditions: source organism: Zaire ebolavirus
HLA-A*26:01 = assay: as above; conditions: source organism: Zaire ebolavirus
HLA-B*51:01 [10] = assay: as above; conditions: source organism: Zaire ebolavirus
HLA-A*02:01 [11] = assay: as above; conditions: source organism: Zaire ebolavirus
HLA-A*11:01 [12] = assay: IEDB peptide-MHC binding, purified MHC/direct/fluorescence; filed as Kd, often an IC50 or EC50 that approximates it; ≥ and ≤ were set here for values at or beyond the usual limits of such assays; conditions: source organism: Ebola virus - Gabon (1994-1997)
HLA-B*58:01 [13] = assay: as above; conditions: source organism: Ebola virus - Gabon (1994-1997)
HLA-B*57:01 [14] = assay: as above; conditions: source organism: Ebola virus - Gabon (1994-1997)
HLA-A*31:01 [15] = assay: as above; conditions: source organism: Ebola virus - Gabon (1994-1997)
HLA-A*02:03 [16] = assay: as above; conditions: source organism: Zaire ebolavirus
HLA-B*15:01 = assay: as above; conditions: source organism: Ebola virus - Gabon (1994-1997)
HLA-B*44:02 = assay: as above; conditions: source organism: Ebola virus - Gabon (1994-1997)
HLA-A*01:01 = assay: as above; conditions: source organism: Ebola virus - Gabon (1994-1997)
HLA-B*27:05 = assay: as above; conditions: source organism: Ebola virus - Gabon (1994-1997)
HLA-A*03:01 [17] = assay: as above; conditions: source organism: Ebola virus - Gabon (1994-1997)
HLA-A*02:16 = assay: as above; conditions: source organism: Zaire ebolavirus
HLA-A*02:19 = assay: as above; conditions: source organism: Zaire ebolavirus
HLA-B*39:01 = assay: as above; conditions: source organism: Ebola virus - Gabon (1994-1997)
HLA-B*18:01 = assay: as above; conditions: source organism: Ebola virus - Gabon (1994-1997)
HLA-B*48:01 = assay: as above; conditions: source organism: Ebola virus - Gabon (1994-1997)
HLA-A*02:11 = assay: as above; conditions: source organism: Zaire ebolavirus
HLA-B*07:02 [18] = assay: as above; conditions: source organism: Ebola virus - Gabon (1994-1997)
HLA-A*02:12 = assay: as above; conditions: source organism: Zaire ebolavirus
HLA-B*40:01 = assay: as above; conditions: source organism: Ebola virus - Gabon (1994-1997)
HLA-B*46:01 = assay: as above; conditions: source organism: Ebola virus - Gabon (1994-1997)
[19] = source organism: Dengue virus 1 Singapore/S275/1990
[20] = source organism: Dengue virus 2 Peru/IQT2913/1996
[21] = source organism: Dengue virus 4 Philippines/H241/1956
[22] = source organism: Dengue virus 1 Brazil/97-11/1997
[23] = source organism: Vaccinia virus WR
[24] = source organism: Lymphocytic choriomeningitis virus (strain Armstrong)
[25] = source organism: SARS coronavirus Tor2
[26] = source organism: Dengue virus 3 Martinique/1243/1999

Work on ASSVLLWMAS yielded a Kd (HLA-B*58:01 [1]; [19]) of 690 nM and a Kd (HLA-B*57:01 [2]; [19]) of 15100 nM.
Sequence ESWEEIPYLG has a Kd (HLA-B*58:01 [1]; [20]) of 90.3 nM and a Kd (HLA-B*57:01 [2]; [20]) of 78.3 nM.
Sequence GASKRSWPLN has a Kd (HLA-B*58:01 [1]; [21]) of 763 nM, a Kd (HLA-B*57:01 [2]; [21]) of 106 nM and a Kd (HLA-A*30:01) of 257 nM.
Work on KASQEGPLPE yielded a Kd (HLA-B*58:01 [1]; [22]) of 669 nM and a Kd (HLA-B*57:01 [2]; [22]) of 894 nM.
Work on KPYTAGNKV yielded a Kd (HLA-B*54:01; [23]) of 29.5 nM, a Kd (HLA-B*35:01; [23]) of at least 77400 nM and a Kd (HLA-B*53:01; [23]) of at least 78200 nM. For the same sequence, the Kd (HLA-B*07:02 [3]; [23]) was 36.6 nM and the Kd (HLA-B*51:01 [4]; [23]) was 10.3 nM.
LPFYETLPEL gave a Kd (HLA-B*54:01; [23]) of 29.7 nM, a Kd (HLA-B*35:01; [23]) of 63.1 nM and a Kd (HLA-B*53:01; [23]) of 57 nM. The Kd (HLA-B*07:02 [3]; [23]) was 79.8 nM and the Kd (HLA-B*51:01 [4]; [23]) was 55.1 nM.
MPSEDGAEAL showed a Kd (HLA-B*54:01; [24]) of 2850 nM, a Kd (HLA-B*35:01; [24]) of 68.1 nM and a Kd (HLA-B*53:01; [24]) of 1730 nM. It also gave a Kd (HLA-B*07:02 [3]; [24]) of 1360 nM and a Kd (HLA-B*51:01 [4]; [24]) of at least 21500 nM.
With NPTKYIRWKL the Kd (HLA-B*54:01; [23]) was 5880 nM, the Kd (HLA-B*35:01; [23]) was 15000 nM and the Kd (HLA-B*53:01; [23]) was 2020 nM. For the same sequence, the Kd (HLA-B*07:02 [3]; [23]) was 27 nM and the Kd (HLA-B*51:01 [4]; [23]) was at least 59400 nM.
Sequence RPIFEWIEA has a Kd (HLA-B*54:01; [25]) of 100 nM, a Kd (HLA-B*35:01; [25]) of 296 nM and a Kd (HLA-B*53:01; [25]) of 234 nM. It also gave a Kd (HLA-B*07:02 [3]; [25]) of 378 nM and a Kd (HLA-B*51:01 [4]; [25]) of 416 nM.
Sequence SPETQQMII has a Kd (HLA-B*54:01; [23]) of 19500 nM, a Kd (HLA-B*35:01; [23]) of 845 nM and a Kd (HLA-B*53:01; [23]) of 11.4 nM. The Kd (HLA-B*07:02 [3]; [23]) was 408 nM and the Kd (HLA-B*51:01 [4]; [23]) was 105 nM.
With VASVELPNSL the Kd (HLA-B*58:01 [1]; [22]) was 149 nM and the Kd (HLA-B*57:01 [2]; [22]) was 4530 nM.
With VASVNMVSRL the Kd (HLA-B*58:01 [1]; [26]) was 1050 nM and the Kd (HLA-B*57:01 [2]; [26]) was 2240 nM.
VLPHLCLDYK showed a Kd (HLA-A*11:01 [5]) of 194 nM, a Kd (HLA-A*31:01 [6]) of 1760 nM and a Kd (HLA-A*02:03 [7]) of at least 70400 nM. For the same sequence, the Kd (HLA-A*02:06) was at least 20200 nM, the Kd (HLA-A*68:02) was at least 69800 nM and the Kd (HLA-A*02:02) was at least 70000 nM. The Kd (HLA-A*03:01 [8]) was 26.1 nM, the Kd (HLA-A*33:01) was 19300 nM and the Kd (HLA-B*54:01; [23]) was at least 69900 nM. For the same sequence, the Kd (HLA-B*35:01; [23]) was at least 69900 nM, the Kd (HLA-A*68:01) was 1320 nM and the Kd (HLA-B*53:01; [23]) was at least 69900 nM. It also gave a Kd (HLA-B*07:02 [3]; [23]) of at least 69600 nM, a Kd (HLA-B*51:01 [4]; [23]) of at least 69600 nM and a Kd (HLA-A*02:01 [9]) of at least 69400 nM.
VPHSVFIASA gave a Kd (HLA-B*54:01; [23]) of 0.286 nM, a Kd (HLA-B*35:01; [23]) of 8490 nM and a Kd (HLA-B*53:01; [23]) of at least 69900 nM. The Kd (HLA-B*07:02 [3]; [23]) was 528 nM and the Kd (HLA-B*51:01 [4]; [23]) was at least 69600 nM.
YFTFDLTAL showed a Kd (HLA-B*15:17) of at least 20000 nM, a Kd (HLA-B*27:03) of at least 20000 nM and a Kd (HLA-A*69:01) of at least 20000 nM. For the same sequence, the Kd (HLA-A*26:01) was at least 20000 nM, the Kd (HLA-B*51:01 [10]) was at least 20000 nM and the Kd (HLA-A*02:01 [11]) was at least 20000 nM. It also gave a Kd (HLA-A*11:01 [12]) of at least 20000 nM, a Kd (HLA-B*58:01 [13]) of at least 20000 nM and a Kd (HLA-B*57:01 [14]) of at least 20000 nM. It also gave a Kd (HLA-A*31:01 [15]) of at least 20000 nM, a Kd (HLA-A*02:03 [16]) of at least 20000 nM and a Kd (HLA-B*15:01) of at least 20000 nM. The Kd (HLA-B*44:02) was at least 20000 nM, the Kd (HLA-A*01:01) was at least 20000 nM and the Kd (HLA-B*27:05) was at least 20000 nM. It also gave a Kd (HLA-A*03:01 [17]) of at least 20000 nM, a Kd (HLA-A*02:16) of at least 20000 nM and a Kd (HLA-A*02:19) of at least 20000 nM. For the same sequence, the Kd (HLA-B*39:01) was at least 20000 nM, the Kd (HLA-B*18:01) was at least 20000 nM and the Kd (HLA-B*48:01) was at least 20000 nM. It also gave a Kd (HLA-A*02:11) of at least 20000 nM, a Kd (HLA-B*07:02 [18]) of at least 20000 nM and a Kd (HLA-A*02:12) of at least 20000 nM. For the same sequence, the Kd (HLA-B*40:01) was at least 20000 nM and the Kd (HLA-B*46:01) was at least 20000 nM.

Reference: the Immune Epitope Database (IEDB)
